# Measured values: patent US8158376B2, “Bisubstrate fluorescent probe binding to protein kinases” (University of Tartu, priority 2006, dated 2012)
# Like-named read-outs stand apart in the source and are kept apart here.
# How the values were obtained:
# Type in all cases: biochemical
# SGK = target: T1, SGK (Homo sapiens, UniProt O00141); assay: Kinase selectivity panel; conditions: read-out: residual activity (%) SGK
# T1 sequence (O00141 1-431): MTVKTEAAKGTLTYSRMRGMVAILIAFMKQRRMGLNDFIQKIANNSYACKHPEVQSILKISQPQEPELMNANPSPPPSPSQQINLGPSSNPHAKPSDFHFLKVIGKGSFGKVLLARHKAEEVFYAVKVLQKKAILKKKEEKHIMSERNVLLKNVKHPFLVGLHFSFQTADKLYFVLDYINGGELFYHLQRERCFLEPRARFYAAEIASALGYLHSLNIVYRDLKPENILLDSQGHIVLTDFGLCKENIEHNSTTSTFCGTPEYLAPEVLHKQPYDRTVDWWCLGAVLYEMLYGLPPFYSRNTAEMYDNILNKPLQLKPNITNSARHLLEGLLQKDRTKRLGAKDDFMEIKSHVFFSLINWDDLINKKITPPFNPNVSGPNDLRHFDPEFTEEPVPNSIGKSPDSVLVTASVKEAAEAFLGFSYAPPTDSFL
# Procedure, shortened: (§1)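 Each kinase was tested as one member of a 52-kinase selectivity panel. Kinase reactions were run at 30° C.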
# MARK3 = MARK3 (Homo sapiens, UniProt P27448); assay: Kinase selectivity panel; conditions: read-out: residual activity (%) MARK3
# Procedure, shortened: as §1
# MAPKAP-K1a/rsk-1 = MAPKAP-K1a/rsk-1 (Homo sapiens, UniProt Q15418); assay: Kinase selectivity panel; conditions: inhibitor 1 μM, ATP 50 μM
# Procedure, shortened: as §1
# DYRK1a = DYRK1a (Homo sapiens, UniProt Q13627); assay: Kinase selectivity panel; conditions: read-out: residual activity (%) DYRK1a
# Procedure, shortened: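 52-kinase panel; assays run at 30° C.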
# PKBb = PKBb (Homo sapiens, UniProt P31751); assay: Kinase selectivity panel, residual activity; conditions: 1 μM compound, 50 μM ATP, 30° C.
# Method: (§2) The assay of protein kinases was performed at 30° C. as described previously [Davies et al., Biochem. J. 351 (2000) 95; Murray et al., Biochem. J. 384 (2004) 477]. The results of the testing are expressed as the % of residual activity of the kinase in the presence of the inhibitor at 1 micromolar concentration.
# PRK2 = PRK2 (Homo sapiens, UniProt Q16513); assay: Kinase selectivity panel, residual activity
# Method: as §2
# PKBΔph = PKBΔph (Homo sapiens, UniProt P31749); assay: Kinase selectivity panel, residual activity; conditions: 1 μM compound, 5 μM ATP, 30° C.
# Method: as §2
# MAPK2/ERK2 = MAPK2/ERK2 (Homo sapiens, UniProt P28482); assay: Kinase selectivity panel; conditions: inhibitor 1 μM; ATP 50 μM; read-out: residual activity (%) MAPK2/ERK2
# Method: (§3) The panel of kinases included all 52 kinases available for testing. To the best of our knowledge, the selectivity profiling has not been carried out with a wide panel of PK before for bisubstrate-type inhibitors.
# as §2
# SAPK2a/p38 = SAPK2a/p38 (Homo sapiens, UniProt Q16539); assay: Kinase selectivity panel; conditions: inhibitor 1 μM; ATP 50 μM; read-out: residual activity (%) SAPK2a/p38
# Method: as §3, §2
# SAPK3/p38g = target: T2, SAPK3/p38g (Homo sapiens, UniProt P53778); assay: Kinase selectivity panel; conditions: inhibitor 1 μM; ATP 5 μM; read-out: residual activity (%) SAPK3/p38g
# T2 sequence (P53778 1-367): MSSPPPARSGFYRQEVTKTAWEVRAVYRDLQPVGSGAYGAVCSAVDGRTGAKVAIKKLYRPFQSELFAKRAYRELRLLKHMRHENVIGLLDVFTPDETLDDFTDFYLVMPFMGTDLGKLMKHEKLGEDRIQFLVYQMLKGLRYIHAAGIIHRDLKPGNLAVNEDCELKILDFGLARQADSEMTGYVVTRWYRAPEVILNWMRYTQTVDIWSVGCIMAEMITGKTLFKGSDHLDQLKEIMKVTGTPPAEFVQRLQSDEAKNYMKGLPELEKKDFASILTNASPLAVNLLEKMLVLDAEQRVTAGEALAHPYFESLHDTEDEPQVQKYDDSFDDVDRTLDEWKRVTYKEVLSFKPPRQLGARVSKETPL
# Method: as §3, §2
# SAPK4/p38d = target: T3, SAPK4/p38d (Homo sapiens, UniProt O15264); assay: Kinase selectivity panel; conditions: inhibitor 1 μM; ATP 5 μM; read-out: residual activity (%) SAPK4/p38d
# T3 sequence (O15264 1-365): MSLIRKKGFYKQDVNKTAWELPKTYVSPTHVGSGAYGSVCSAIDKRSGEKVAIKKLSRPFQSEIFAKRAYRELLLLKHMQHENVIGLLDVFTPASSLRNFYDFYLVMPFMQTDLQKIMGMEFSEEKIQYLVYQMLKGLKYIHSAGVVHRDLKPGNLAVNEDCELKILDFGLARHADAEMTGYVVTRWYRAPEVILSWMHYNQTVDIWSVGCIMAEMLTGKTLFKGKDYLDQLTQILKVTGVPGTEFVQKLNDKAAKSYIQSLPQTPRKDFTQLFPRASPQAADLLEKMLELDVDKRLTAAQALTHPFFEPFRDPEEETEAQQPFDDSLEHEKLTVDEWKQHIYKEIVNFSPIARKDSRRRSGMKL
# Method: as §3, §2
# JNK/SAPK1c = JNK/SAPK1c (Homo sapiens, UniProt P45983); assay: Kinase selectivity panel; conditions: inhibitor 1 μM; ATP 20 μM; read-out: residual activity (%) JNK/SAPK1c
# Method: as §3, §2
# SAPK2b/p38β2 = SAPK2b/p38β2 (Homo sapiens, UniProt Q15759); assay: Kinase selectivity panel; conditions: inhibitor 1 μM; ATP 20 μM; read-out: residual activity (%) SAPK2b/p38β2
# Method: as §3, §2
# CDK2/cyclin A = CDK2/cyclin A (Homo sapiens, UniProt P24941); assay: Kinase selectivity panel; conditions: inhibitor 1 μM; ATP 20 μM; read-out: residual activity (%) CDK2/cyclin A
# Method: as §3, §2
# Chain of MAPKAP-K1a/rsk-1 (Q15418 whole entry): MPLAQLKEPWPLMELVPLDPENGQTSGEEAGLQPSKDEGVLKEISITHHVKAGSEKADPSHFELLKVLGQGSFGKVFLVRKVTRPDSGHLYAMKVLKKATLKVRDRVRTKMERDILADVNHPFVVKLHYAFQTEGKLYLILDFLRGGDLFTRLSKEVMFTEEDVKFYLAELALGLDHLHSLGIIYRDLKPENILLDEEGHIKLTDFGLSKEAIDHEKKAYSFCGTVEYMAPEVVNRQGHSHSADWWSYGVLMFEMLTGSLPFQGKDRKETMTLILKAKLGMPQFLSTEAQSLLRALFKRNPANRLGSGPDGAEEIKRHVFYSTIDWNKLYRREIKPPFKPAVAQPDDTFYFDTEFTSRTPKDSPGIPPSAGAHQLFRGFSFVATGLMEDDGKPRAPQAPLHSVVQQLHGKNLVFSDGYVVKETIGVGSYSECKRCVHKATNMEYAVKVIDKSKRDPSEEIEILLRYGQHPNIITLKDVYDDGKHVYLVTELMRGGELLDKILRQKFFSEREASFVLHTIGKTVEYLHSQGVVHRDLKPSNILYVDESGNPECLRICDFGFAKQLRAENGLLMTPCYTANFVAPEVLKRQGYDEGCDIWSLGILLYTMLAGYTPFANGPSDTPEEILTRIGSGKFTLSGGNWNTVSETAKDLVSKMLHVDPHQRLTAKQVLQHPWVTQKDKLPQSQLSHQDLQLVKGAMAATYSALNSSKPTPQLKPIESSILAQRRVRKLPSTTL
# Chain of MAPK2/ERK2 (P28482 whole entry): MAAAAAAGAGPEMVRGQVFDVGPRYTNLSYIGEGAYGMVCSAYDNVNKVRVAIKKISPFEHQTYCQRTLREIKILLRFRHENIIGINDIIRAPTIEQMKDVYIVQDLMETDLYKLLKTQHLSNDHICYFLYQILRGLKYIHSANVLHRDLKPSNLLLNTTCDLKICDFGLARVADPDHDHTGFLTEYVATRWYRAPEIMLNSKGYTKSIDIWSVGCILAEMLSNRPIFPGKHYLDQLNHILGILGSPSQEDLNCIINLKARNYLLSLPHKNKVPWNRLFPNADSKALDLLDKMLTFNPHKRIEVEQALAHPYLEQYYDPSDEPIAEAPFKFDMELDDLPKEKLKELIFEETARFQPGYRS
# Chain of JNK/SAPK1c (P45983 whole entry): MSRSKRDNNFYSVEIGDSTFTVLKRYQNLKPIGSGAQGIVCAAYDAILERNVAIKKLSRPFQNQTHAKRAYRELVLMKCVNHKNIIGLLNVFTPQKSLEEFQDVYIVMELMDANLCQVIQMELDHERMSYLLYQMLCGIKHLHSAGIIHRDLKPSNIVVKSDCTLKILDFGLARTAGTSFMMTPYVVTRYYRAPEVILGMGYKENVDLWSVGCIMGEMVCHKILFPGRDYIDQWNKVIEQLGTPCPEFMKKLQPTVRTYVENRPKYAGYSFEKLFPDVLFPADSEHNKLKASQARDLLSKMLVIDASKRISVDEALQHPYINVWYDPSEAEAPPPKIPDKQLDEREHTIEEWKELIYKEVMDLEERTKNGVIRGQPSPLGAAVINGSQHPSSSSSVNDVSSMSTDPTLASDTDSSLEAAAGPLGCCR
# Chain of SAPK2b/p38β2 (Q15759 whole entry): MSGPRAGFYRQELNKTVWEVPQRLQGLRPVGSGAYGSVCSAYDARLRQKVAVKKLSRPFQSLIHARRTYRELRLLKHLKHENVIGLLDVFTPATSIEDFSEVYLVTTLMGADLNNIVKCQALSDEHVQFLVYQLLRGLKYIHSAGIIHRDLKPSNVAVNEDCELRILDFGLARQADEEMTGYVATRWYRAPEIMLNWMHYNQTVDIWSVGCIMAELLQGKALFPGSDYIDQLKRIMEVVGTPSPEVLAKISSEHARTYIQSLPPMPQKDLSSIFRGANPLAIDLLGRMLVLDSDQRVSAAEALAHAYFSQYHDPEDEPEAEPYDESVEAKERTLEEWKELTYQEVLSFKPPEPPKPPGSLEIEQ
# Chain of MARK3 (P27448 whole entry, species assumed): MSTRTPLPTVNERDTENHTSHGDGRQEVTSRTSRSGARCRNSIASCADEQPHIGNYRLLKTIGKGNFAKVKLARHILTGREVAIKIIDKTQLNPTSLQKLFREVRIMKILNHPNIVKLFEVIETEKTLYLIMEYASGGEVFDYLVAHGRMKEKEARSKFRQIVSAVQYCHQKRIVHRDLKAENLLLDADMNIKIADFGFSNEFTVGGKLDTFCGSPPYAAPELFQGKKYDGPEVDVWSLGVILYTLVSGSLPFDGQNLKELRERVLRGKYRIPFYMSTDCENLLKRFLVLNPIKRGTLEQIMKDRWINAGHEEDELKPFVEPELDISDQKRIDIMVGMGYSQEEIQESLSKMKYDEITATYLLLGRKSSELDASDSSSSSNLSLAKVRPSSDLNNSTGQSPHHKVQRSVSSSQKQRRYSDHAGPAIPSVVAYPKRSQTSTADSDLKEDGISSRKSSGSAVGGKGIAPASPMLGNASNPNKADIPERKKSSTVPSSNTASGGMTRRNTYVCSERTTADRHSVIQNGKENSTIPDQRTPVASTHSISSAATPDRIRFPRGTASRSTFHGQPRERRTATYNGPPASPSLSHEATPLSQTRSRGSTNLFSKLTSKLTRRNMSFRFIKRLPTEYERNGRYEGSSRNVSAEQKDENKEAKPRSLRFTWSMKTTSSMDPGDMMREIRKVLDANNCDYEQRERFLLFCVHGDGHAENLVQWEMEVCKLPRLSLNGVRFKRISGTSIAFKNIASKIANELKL
# Chain of SAPK2a/p38 (Q16539 whole entry): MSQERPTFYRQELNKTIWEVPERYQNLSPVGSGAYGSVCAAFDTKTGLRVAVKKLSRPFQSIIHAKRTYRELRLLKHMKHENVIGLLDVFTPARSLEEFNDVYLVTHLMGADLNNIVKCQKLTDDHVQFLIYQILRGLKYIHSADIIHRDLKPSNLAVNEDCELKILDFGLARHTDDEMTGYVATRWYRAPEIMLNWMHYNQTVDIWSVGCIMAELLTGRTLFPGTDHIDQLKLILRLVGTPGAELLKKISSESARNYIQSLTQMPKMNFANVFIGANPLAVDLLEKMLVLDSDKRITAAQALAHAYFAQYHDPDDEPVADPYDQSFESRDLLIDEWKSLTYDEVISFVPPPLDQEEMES
# Chain of PKBb (P31751 whole entry): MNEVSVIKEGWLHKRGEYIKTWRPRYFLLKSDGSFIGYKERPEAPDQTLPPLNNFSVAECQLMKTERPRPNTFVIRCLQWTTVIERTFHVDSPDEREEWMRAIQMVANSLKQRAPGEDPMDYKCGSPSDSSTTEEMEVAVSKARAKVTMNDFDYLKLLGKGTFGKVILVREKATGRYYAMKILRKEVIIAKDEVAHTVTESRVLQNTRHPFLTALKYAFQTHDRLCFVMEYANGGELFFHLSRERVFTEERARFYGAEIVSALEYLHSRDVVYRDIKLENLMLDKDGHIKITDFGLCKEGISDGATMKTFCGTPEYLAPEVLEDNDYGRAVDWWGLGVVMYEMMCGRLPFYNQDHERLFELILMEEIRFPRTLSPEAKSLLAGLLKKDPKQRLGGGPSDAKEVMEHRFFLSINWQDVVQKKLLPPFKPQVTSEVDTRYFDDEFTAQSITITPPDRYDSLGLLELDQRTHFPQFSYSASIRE
# Chain of PRK2 (Q16513 whole entry): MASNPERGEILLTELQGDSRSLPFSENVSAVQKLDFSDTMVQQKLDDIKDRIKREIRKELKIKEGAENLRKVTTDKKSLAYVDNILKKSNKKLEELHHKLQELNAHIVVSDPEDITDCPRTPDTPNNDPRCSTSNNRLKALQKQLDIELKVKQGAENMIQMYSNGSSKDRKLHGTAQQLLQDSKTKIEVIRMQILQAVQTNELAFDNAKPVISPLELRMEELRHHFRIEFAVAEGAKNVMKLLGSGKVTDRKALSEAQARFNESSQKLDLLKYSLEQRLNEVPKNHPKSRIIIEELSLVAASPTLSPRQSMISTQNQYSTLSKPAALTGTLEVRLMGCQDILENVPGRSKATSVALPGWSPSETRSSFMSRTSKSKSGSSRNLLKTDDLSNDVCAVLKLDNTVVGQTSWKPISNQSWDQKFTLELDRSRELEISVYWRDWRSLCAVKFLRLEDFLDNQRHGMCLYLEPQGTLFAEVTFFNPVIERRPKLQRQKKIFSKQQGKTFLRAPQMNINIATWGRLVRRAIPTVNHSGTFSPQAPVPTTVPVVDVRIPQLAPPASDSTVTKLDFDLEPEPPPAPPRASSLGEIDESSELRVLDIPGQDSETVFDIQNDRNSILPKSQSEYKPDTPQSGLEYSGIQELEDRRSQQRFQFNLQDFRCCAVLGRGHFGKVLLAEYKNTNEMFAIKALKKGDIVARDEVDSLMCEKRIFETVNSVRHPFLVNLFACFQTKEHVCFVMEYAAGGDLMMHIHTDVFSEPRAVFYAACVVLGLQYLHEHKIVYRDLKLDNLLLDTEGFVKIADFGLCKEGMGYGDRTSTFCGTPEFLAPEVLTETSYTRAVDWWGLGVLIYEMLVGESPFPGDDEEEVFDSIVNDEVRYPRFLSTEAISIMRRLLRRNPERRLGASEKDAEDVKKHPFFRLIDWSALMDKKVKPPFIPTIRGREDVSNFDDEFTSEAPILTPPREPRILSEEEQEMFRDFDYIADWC
# Chain of PKBΔph (P31749 whole entry, stated change not applied): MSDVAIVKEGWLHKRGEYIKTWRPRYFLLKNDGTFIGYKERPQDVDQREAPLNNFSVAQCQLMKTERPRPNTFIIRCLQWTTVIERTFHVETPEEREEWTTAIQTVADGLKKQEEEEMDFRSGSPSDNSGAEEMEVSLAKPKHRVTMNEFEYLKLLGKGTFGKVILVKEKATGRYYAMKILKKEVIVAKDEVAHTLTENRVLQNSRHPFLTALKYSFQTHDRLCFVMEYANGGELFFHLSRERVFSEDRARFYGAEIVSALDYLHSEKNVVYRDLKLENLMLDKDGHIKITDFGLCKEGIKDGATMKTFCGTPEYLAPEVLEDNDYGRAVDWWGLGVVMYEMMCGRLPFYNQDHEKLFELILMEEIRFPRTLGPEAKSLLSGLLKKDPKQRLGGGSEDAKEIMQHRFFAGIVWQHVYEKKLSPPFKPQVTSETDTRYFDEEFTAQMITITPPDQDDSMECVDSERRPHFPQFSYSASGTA
Compound,remaining activity at 1 µM (SGK) [%],remaining activity at 1 µM (MARK3) [%],residual activity (%) MAPKAP-K1a/rsk-1 (MAPKAP-K1a/rsk-1),remaining activity at 1 µM (DYRK1a) [%],remaining activity at 1 µM (PKBb) [%],remaining activity at 1 µM (PRK2) [%],residual activity (PKBΔph) [%],remaining activity at 1 µM (MAPK2/ERK2) [%],remaining activity at 1 µM (SAPK2a/p38) [%],remaining activity at 1 µM (SAPK3/p38g) [%],remaining activity at 1 µM (SAPK4/p38d) [%],remaining activity at 1 µM (JNK/SAPK1c) [%],remaining activity at 1 µM (SAPK2b/p38β2) [%],remaining activity at 1 µM (CDK2/cyclin A) [%],"remaining activity at 1 µM (SGK; inhibitor 1 μM, ATP 20 μM) [%]","remaining activity at 1 µM (MARK3; inhibitor 1 μM, ATP 5 μM) [%]",remaining activity at 1 µM (MAPKAP-K1a/rsk-1; read-out: residual activity (%) MAPKAP-K1a/rsk-1) [%],"remaining activity at 1 µM (DYRK1a; inhibitor 1 μM, ATP 50 μM) [%]"
"N=C(N)NCCC[C@@H](NC(=O)[C@@H](CCCNC(=N)N)NC(=O)[C@@H](CCCNC(=N)N)NC(=O)[C@@H](CCCNC(=N)N)NC(=O)[C@@H](CCCNC(=N)N)NC(=O)[C@@H](CCCNC(=N)N)NC(=O)CCCCCNC(=O)[C@H]1O[C@@H](n2cnc3c(N)ncnc32)[C@H](O)[C@@H]1O)C(N)=O [Compound 5, AdcAhx(D-Arg)6-NH2]",16,40,28 (±7) %,72,≤ 3,≤ 3,≤ 3,100,79,111,107,70,85,88,,,,
"N=C(N)NCCC[C@@H](NC(=O)[C@@H](CCCNC(=N)N)NC(=O)[C@@H](CCCNC(=N)N)NC(=O)[C@@H](CCCNC(=N)N)NC(=O)[C@@H](CCCNC(=N)N)NC(=O)[C@@H](CCCNC(=N)N)NC(=O)CCCCCNCCNS(=O)(=O)c1cccc2cnccc12)C(N)=O [Compound 26, H9-Hex(D-Arg)6-NH2]",,,,,,,,95,76,99,93,75,80,73,1,53,0,69
